Legend:
SEC = biological target: the molecule itself; test: SEC
purified protein [1] = substrate: CC(=O)SCCNC(=O)CCNC(=O)[C@H](O)C(C)(C)COP(=O)(O)OP(=O)(O)OC[C@H]1O[C@@H](n2cnc3c(N)ncnc32)[C@H](O)[C@@H]1OP(=O)(O)O; test: purified protein; settings: 50 mM HEPES-K pH 8.0, 2 mM EDTA, 0.3 mM DTNB, 37 °C
purified protein [2] = substrate: CC(C(=O)O)C(=O)SCCNC(=O)CCNC(=O)[C@H](O)C(C)(C)COP(=O)(O)OP(=O)(O)OC[C@H]1O[C@@H](n2cnc3c(N)ncnc32)[C@H](O)[C@@H]1OP(=O)(O)O; test: purified protein; settings: 50 mM HEPES-K pH 8.0, 2 mM EDTA, 0.3 mM DTNB, 37 °C
purified protein [3] = substrate: CC(C)(COP(=O)(O)OP(=O)(O)OC[C@H]1O[C@@H](n2cnc3c(N)ncnc32)[C@H](O)[C@@H]1OP(=O)(O)O)[C@@H](O)C(=O)NCCC(=O)NCCSC(=O)CCC(=O)O; test: purified protein; settings: 50 mM HEPES-K pH 8.0, 2 mM EDTA, 0.3 mM DTNB, 37 °C
purified protein [4] = substrate: CC(C)(COP(=O)(O)OP(=O)(O)OC[C@H]1O[C@@H](n2cnc3c(N)ncnc32)[C@H](O)[C@@H]1OP(=O)(O)O)[C@@H](O)C(=O)NCCC(=O)NCCSC(=O)CCCC(=O)O; test: purified protein; settings: 50 mM HEPES-K pH 8.0, 2 mM EDTA, 0.3 mM DTNB, 37 °C
purified protein [5] = substrate: CC(C)(COP(=O)(O)OP(=O)(O)OC[C@H]1O[C@@H](n2cnc3c(N)ncnc32)[C@H](O)[C@@H]1OP(=O)(O)O)[C@@H](O)C(=O)NCCC(=O)NCCSC(=O)C[C@@](C)(O)CC(=O)O; test: purified protein; settings: 50 mM HEPES-K pH 8.0, 2 mM EDTA, 0.3 mM DTNB, 37 °C
purified protein [6] = substrate: CC(C)(COP(=O)(O)OP(=O)(O)OC[C@H]1O[C@@H](n2cnc3c(N)ncnc32)[C@H](O)[C@@H]1OP(=O)(O)O)[C@@H](O)C(=O)NCCC(=O)NCCSC(=O)Cc1ccccc1; test: purified protein; settings: 50 mM HEPES-K pH 8.0, 2 mM EDTA, 0.3 mM DTNB, 37 °C
purified protein [7] = substrate: CC(O)CC(=O)SCCNC(=O)CCNC(=O)[C@H](O)C(C)(C)COP(=O)(O)OP(=O)(O)OC[C@H]1O[C@@H](n2cnc3c(N)ncnc32)[C@H](O)[C@@H]1OP(=O)(O)O; test: purified protein; settings: 50 mM HEPES-K pH 8.0, 2 mM EDTA, 0.3 mM DTNB, 37 °C
purified protein [8] = substrate: CCCCCC(=O)SCCNC(=O)CCNC(=O)[C@H](O)C(C)(C)COP(=O)(O)OP(=O)(O)OC[C@H]1O[C@@H](n2cnc3c(N)ncnc32)[C@H](O)[C@@H]1OP(=O)(O)O; test: purified protein; settings: 50 mM HEPES-K pH 8.0, 2 mM EDTA, 0.3 mM DTNB, 37 °C
purified protein [9] = substrate: CCCCCCCC(=O)SCCNC(=O)CCNC(=O)[C@H](O)C(C)(C)COP(=O)(O)OP(=O)(O)OC[C@H]1O[C@@H](n2cnc3c(N)ncnc32)[C@H](O)[C@@H]1OP(=O)(O)O; test: purified protein; settings: 50 mM HEPES-K pH 8.0, 2 mM EDTA, 0.3 mM DTNB, 37 °C
purified protein [10] = substrate: CCCCCCCCCCCCCCCC(=O)SCCNC(=O)CCNC(=O)[C@H](O)C(C)(C)COP(=O)(O)OP(=O)(O)OC[C@H]1O[C@@H](n2cnc3c(N)ncnc32)[C@H](O)[C@@H]1OP(=O)(O)O; test: purified protein; settings: 50 mM HEPES-K pH 8.0, 2 mM EDTA, 0.3 mM DTNB, 37 °C
purified protein [11] = substrate: CCCCCCCCCCCCCCCCCC(=O)SCCNC(=O)CCNC(=O)[C@H](O)C(C)(C)COP(=O)(O)OP(=O)(O)OC[C@H]1O[C@@H](n2cnc3c(N)ncnc32)[C@H](O)[C@@H]1OP(=O)(O)O; test: purified protein; settings: 50 mM HEPES-K pH 8.0, 2 mM EDTA, 0.3 mM DTNB, 37 °C

B1: PA5026 (natural protein, Pseudomonas aeruginosa)
chain: MPLPTELARHLTEEKIAFVQRSGLRAEVLEPGYVRLRMPGAGNENHIGSMYAGALFTLAELPGGALFLTSFDSARFYPIVKEMTLRFRRPAKGDIRVEARLDAERIRQLETEAGERGKAEYSLELQLTDEQGEVVAESAALYQLRSHARP
stoichiometry N (SEC): 2

B2: PA2801 (enzyme, Pseudomonas aeruginosa)
chain: MADRQLLHTAHIPVRWGDMDSYGHVNNTLYFQYLEEARVAWFETLGIDLEGAAEGPVVLQSLHTYLKPVVHPATVVVELYAGRLGTSSLVLEHRLHTLEDPQGTYGEGHCKLVWVRHAENRSTPVPDSIRAAIA
stoichiometry N (SEC): 4

B3: PA1835 (natural protein, Pseudomonas aeruginosa)
chain: MSQMMQMYQQVGPAQFSAMIGQFAPYFASIAPQFVELRPGYAEVTFPKRREVLNHIGTVHAIALCNAAELAAGTMTDASIPAGHRWIPRGMTVEYLAKATGDVRAVADGSQIDWQATGNLVVPVVAYVDDKPVFRAEITMYVSQA
stoichiometry N (SEC): 2

B4: PA5185 (enzyme, Pseudomonas aeruginosa)
chain: MATAPRPLREQYLHFQPISTRWHDNDIYGHVNNVTYYAFFDTAVNTYLIERGGLDIQGGEVIGLVVSSSCDYFAPVAFPQRIEMGLRVARLGNSSVQYELALFLEGQREACAAGRFVHVFVERRSSRPVAIPQELRDALAALQSSAQ
stoichiometry N (SEC): 4

B5: PA5202 (enzyme, Pseudomonas aeruginosa, UniProt Q9HTY7 1-129, looked up)
chain: MSEMPAREQMISAYSELVGLDPVSLGDGVAEVRLPMAAHLRNRGGVMHGGALFSLMDVTMGLACSSSHGFDRQSVTLECKINYIRAVADGEVRCVARVLHAGRRSLVVEAEVRQGDKLVAKGQGTFAQL
Km (purified protein [1]): 500 ± 100 µM | kcat (purified protein [1]): 0.2 ± 0.03 s⁻¹ | kcat/Km (purified protein [1]): 400 M⁻¹ s⁻¹ | Km (purified protein [2]): 400 ± 40 µM | kcat (purified protein [2]): 0.3 ± 0.01 s⁻¹ | kcat/Km (purified protein [2]): 800 M⁻¹ s⁻¹ | Km (purified protein [3]): 100 ± 20 µM | kcat (purified protein [3]): 0.8 ± 0.03 s⁻¹ | kcat/Km (purified protein [3]): 7000 M⁻¹ s⁻¹ | Km (purified protein [4]): 700 ± 100 µM | kcat (purified protein [4]): 26.8 ± 0.9 s⁻¹ | kcat/Km (purified protein [4]): 40000 M⁻¹ s⁻¹ | Km (purified protein [5]): 100 ± 10 µM | Km (purified protein [6]): 1100 ± 10 µM | kcat (purified protein [6]): 0.1 ± 0.01 s⁻¹ | kcat/Km (purified protein [6]): 100 M⁻¹ s⁻¹ | Km (purified protein [7]): 500 ± 50 µM | kcat (purified protein [7]): 2 ± 0.1 s⁻¹ | kcat/Km (purified protein [7]): 4000 M⁻¹ s⁻¹ | Km (purified protein [8]): 200 ± 20 µM | Km (purified protein [9]): 400 ± 60 µM | kcat (purified protein [9]): 2.4 ± 0.2 s⁻¹ | kcat/Km (purified protein [9]): 7000 M⁻¹ s⁻¹ | Km (purified protein [10]): 20 ± 10 µM | kcat (purified protein [10]): 0.3 ± 0.03 s⁻¹ | kcat/Km (purified protein [10]): 13000 M⁻¹ s⁻¹ | Km (purified protein [11]): 5 ± 1 µM | kcat (purified protein [11]): 0.04 ± 0.003 s⁻¹ | kcat/Km (purified protein [11]): 8000 M⁻¹ s⁻¹ | stoichiometry N (SEC): 4

Source: article PMC3836677 (The Biochemical journal, 2012)
